Measured values from patent publication US20240390508A1 (Takeda / Millennium, published 2024).

Target: T1, human transferrin receptor (hTfR) (human, UniProt P02786 89-760, limits assumed)
T1 construct: 0.5 uM hTfR solution immobilised on a Ni-NTA chip with EDC/NHS; source and construct are not described; also called human TfR
Experiment: SPR, hTfR immobilised on NTA chip, single cycle kinetics; A = KD less than 100 nM
Method: The various synthesized peptide-nucleic acid conjugates were tested for intermolecular interaction by surface plasmon resonance (SPR) of the peptide-nucleic acid conjugate with transferrin receptor (hTfR) using the method shown below. The specific test method is shown below.
NTA sensor chip (Global Life Science Technologies Japan Co., Ltd.) was inserted into Biacore T200 (Global Life Science Technologies Japan Co., Ltd.), prime operation was performed three times with running buffer: 10 mM HEPES pH 8.0 (Nacalai Tesque Co., Ltd.), 150 mM NaCl (Nacalai Tesque Co., Ltd.), 0.05% Tween 20 (Nacalai Tesque Co., Ltd.), 0.1% BSA (SIGMA-ALDRICH), and 1.0% DMSO (FUJIFILM Wako Pure Chemical Corporation), and equilibrated at a flow rate of 30 μL/min. 350 mM EDTA solution was reacted for 60 seconds at a flow rate of 10 μL/min, 0.5 mM NiCl₂ solution (Kishida Chemical) was reacted for 60 seconds at a flow rate of 10 μL/min, and the NTA sensor chip was washed with 3 mM EDTA solution (Nacalai Tesque Co., Ltd.) for 60 seconds at a flow rate of 10 μL/min. After mixing 50 μL each of 60 mM EDC solution (Global Life Science Technologies Japan Co., Ltd.) and 650 mM NHS solution (Global Life Science Technologies Japan Co., Ltd.), the mixture was reacted for 420 seconds at a flow rate of 10 μL/min. 150 μL of a 0.5 μM hTfR solution was prepared by diluting with a running buffer and reacted for 300 seconds at a flow rate of 10 μL/min to immobilize hTfR on the NTA sensor chip. After immobilization, capping was performed by reacting with a 1.0 M ethanolamine aqueous solution (Global Life Science Technologies Japan Co., Ltd.) at a flow rate of 10 μL/min for 420 seconds. A peptide-nucleic acid conjugate solution adjusted to 10 mM in DMSO solution was diluted with running buffer to a final concentration of […] peptide-nucleic acid conjugate solution, and 100 nM, 50 nM, 25 nM, 10 nM, 5 nM peptide-nucleic acid conjugate solutions were prepared. Using the aforementioned samples, the kinetics of the peptide against hTfR was obtained by SPR measurement.
The kinetics evaluation model was Single Cycle Kinetics, and curve fitting was performed using Biacore T200 Evaluation Software Version 3.0 (Global Life Science Technologies Japan Co., Ltd.).

T1 sequence (P02786 89-760 limits assumed): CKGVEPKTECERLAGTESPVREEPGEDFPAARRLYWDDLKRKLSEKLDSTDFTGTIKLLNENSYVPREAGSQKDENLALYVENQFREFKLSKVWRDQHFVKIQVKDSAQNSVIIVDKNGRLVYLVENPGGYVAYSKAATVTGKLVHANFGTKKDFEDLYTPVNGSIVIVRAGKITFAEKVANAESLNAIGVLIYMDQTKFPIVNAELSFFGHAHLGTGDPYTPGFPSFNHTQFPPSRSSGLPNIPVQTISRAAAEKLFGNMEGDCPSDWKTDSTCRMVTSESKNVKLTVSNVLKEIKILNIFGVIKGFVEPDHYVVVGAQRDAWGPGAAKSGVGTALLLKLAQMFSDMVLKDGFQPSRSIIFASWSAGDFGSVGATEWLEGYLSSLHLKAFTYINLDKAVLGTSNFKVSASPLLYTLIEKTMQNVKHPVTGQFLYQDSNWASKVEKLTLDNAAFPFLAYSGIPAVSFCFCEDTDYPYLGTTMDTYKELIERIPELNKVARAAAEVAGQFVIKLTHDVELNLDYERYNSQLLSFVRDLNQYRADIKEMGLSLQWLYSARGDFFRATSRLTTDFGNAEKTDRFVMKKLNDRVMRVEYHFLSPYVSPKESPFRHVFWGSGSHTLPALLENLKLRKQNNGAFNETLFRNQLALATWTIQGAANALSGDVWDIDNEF

Binder	Kd [nM]
AVFVWNYYIIRRYYC (MeF at 3, MeY at 14 (N-methyl); thioether ring from N-terminal chloroacetyl-Ala to Cys 15; C-terminal Gly-KN3-NH2, azide joined to BCN on the oligonucleotide, also called A2/C28) [peptide-HDO conjugate of Example 36 (first nucleic acid strand A2, second nucleic acid strand C28)]	< 100
AVFVWNYYIIRRYYC (MeF at 3, MeY at 14 (N-methyl); thioether ring from N-terminal chloroacetyl-Ala to Cys 15; C-terminal Gly-KN3-NH2, azide joined to BCN on the oligonucleotide, also called A2/C15) [peptide-HDO conjugate of Example 15 (first nucleic acid strand A2, second nucleic acid strand C15)]	< 100
AVFVWNYYIIRRYYC (MeF at 3, MeY at 14 (N-methyl); thioether ring from N-terminal chloroacetyl-Ala to Cys 15; C-terminal Gly-KN3-NH2, azide joined to BCN on the oligonucleotide, also called A2/C31) [peptide-HDO conjugate of Example 39 (first nucleic acid strand A2, second nucleic acid strand C31)]	< 100
AVFVWNYYIIRRYYC (MeF at 3, MeY at 14 (N-methyl); thioether ring from N-terminal chloroacetyl-Ala to Cys 15; C-terminal Gly-KN3-NH2, azide joined to BCN on the oligonucleotide, also called A2/C19) [peptide-HDO conjugate of Example 24 (first nucleic acid strand A2, second nucleic acid strand C19)]	< 100
AVFVWNYYIIRRYYC (MeF at 3, MeY at 14 (N-methyl); thioether ring from N-terminal chloroacetyl-Ala to Cys 15; C-terminal Gly-KN3-NH2, azide joined to BCN on the oligonucleotide, also called A1/C30) [peptide-HDO conjugate of Example 30 (first nucleic acid strand A1, second nucleic acid strand C30)]	< 100
AVFVWNYYIIRRYYC (MeF at 3, MeY at 14 (N-methyl); thioether ring from N-terminal chloroacetyl-Ala to Cys 15; C-terminal Gly-KN3-NH2, azide joined to BCN on the oligonucleotide, also called A1/C45) [peptide-HDO conjugate of Example 45 (first nucleic acid strand A1, second nucleic acid strand C45)]	< 100
AVFVWNYYIIRRYYC (MeF at 3, MeY at 14 (N-methyl); thioether ring from N-terminal chloroacetyl-Ala to Cys 15; C-terminal Gly-KN3-NH2, azide joined to BCN on the oligonucleotide, also called A2/C11) [peptide-HDO conjugate of Example 11 (first nucleic acid strand A2, second nucleic acid strand C11)]	< 100
AVFVWNYYIIRRYYC (MeF at 3, MeY at 14 (N-methyl); thioether ring from N-terminal chloroacetyl-Ala to Cys 15; C-terminal Gly-KN3-NH2, azide joined to BCN on the oligonucleotide, also called A2/C17) [peptide-HDO conjugate of Example 22 (first nucleic acid strand A2, second nucleic acid strand C17)]	< 100
AVFVWNYYIIRRYYC (MeF at 3, MeY at 14 (N-methyl); thioether ring from N-terminal chloroacetyl-Ala to Cys 15; C-terminal Gly-KN3-NH2, azide joined to BCN on the oligonucleotide, also called A1/C20) [peptide-HDO conjugate of Example 20 (first nucleic acid strand A1, second nucleic acid strand C20)]	< 100
AVFVWNYYIIRRYYC (MeF at 3, MeY at 14 (N-methyl); thioether ring from N-terminal chloroacetyl-Ala to Cys 15; C-terminal Gly-KN3-NH2, azide joined to BCN on the oligonucleotide, also called A1/C29) [peptide-HDO conjugate of Example 29 (first nucleic acid strand A1, second nucleic acid strand C29)]	< 100
AVFVWNYYIIRRYYC (MeF at 3, MeY at 14 (N-methyl); thioether ring from N-terminal chloroacetyl-Ala to Cys 15; C-terminal Gly-KN3-NH2, azide joined to BCN on the oligonucleotide, also called A2/C13) [peptide-HDO conjugate of Example 13 (first nucleic acid strand A2, second nucleic acid strand C13)]	< 100
Y11-PMO conjugate of Example 58 (not fully specified; N-terminal BCN; C-terminal amide; tBuS removed from Cys, Cys thiol joined to 3-maleimide propionyl A1; MeF at 3, MeY at 14 (N-methyl); thioether ring from N-terminal chloroacetyl-Ala to Cys 15; C-terminal Gly-KN3-NH2, azide joined to BCN of the linker peptide) peptide: AVFVWNYYIIRRYYC GGGEEESSC	< 100
AVFVWNYYIIRRYYC (MeF at 3, MeY at 14 (N-methyl); thioether ring from N-terminal chloroacetyl-Ala to Cys 15; C-terminal Gly-KN3-NH2, azide joined to BCN on the oligonucleotide, also called A1/C18) [peptide-HDO conjugate of Example 18 (first nucleic acid strand A1, second nucleic acid strand C18)]	< 100
AVFVWNYYIIRRYYC (MeF at 3, MeY at 14 (N-methyl); thioether ring from N-terminal chloroacetyl-Ala to Cys 15; C-terminal Gly-KN3-NH2, azide joined to BCN on the oligonucleotide, also called A1/C27) [peptide-HDO conjugate of Example 27 (first nucleic acid strand A1, second nucleic acid strand C27)]	< 100
AVFVWNYYIIRRYYC (MeF at 3, MeY at 14 (N-methyl); thioether ring from N-terminal chloroacetyl-Ala to Cys 15; C-terminal Gly-KN3-NH2, azide joined to BCN on the oligonucleotide, also called A1/C32) [peptide-HDO conjugate of Example 32 (first nucleic acid strand A1, second nucleic acid strand C32)]	< 100
AVFVWNYYIIRRYYC (not fully specified; MeF at 3, MeY at 14 (N-methyl); thioether ring from N-terminal chloroacetyl-Ala to Cys 15; C-terminal Gly-KN3-NH2, azide joined to BCN on the oligonucleotide, also called A4/C55) [peptide-HDO conjugate of Example 55 (first nucleic acid strand A4, second nucleic acid strand C55)]	< 100
AVFVWNYYIIRRYYC (MeF at 3, MeY at 14 (N-methyl); thioether ring from N-terminal chloroacetyl-Ala to Cys 15; C-terminal Gly-PEG4c-KN3-NH2, azide joined to BCN on the oligonucleotide, also called A2/C49) [peptide-HDO conjugate of Example 52 (first nucleic acid strand A2, second nucleic acid strand C49)]	< 100
AVFVWNYYIIRRYYC (MeF at 3, MeY at 14 (N-methyl); thioether ring from N-terminal chloroacetyl-Ala to Cys 15; C-terminal Gly-KN3-NH2, azide joined to BCN on the oligonucleotide, also called A2/C33) [peptide-HDO conjugate of Example 41 (first nucleic acid strand A2, second nucleic acid strand C33)]	< 100
AVFVWNYYIIRRYYC (MeF at 3, MeY at 14 (N-methyl); thioether ring from N-terminal chloroacetyl-Ala to Cys 15; C-terminal Gly-KN3-NH2, azide joined to BCN on the oligonucleotide, also called A2/C20) [peptide-HDO conjugate of Example 25 (first nucleic acid strand A2, second nucleic acid strand C20)]	< 100
AVFVWNYYIIRRYYC (MeF at 3, MeY at 14 (N-methyl); thioether ring from N-terminal chloroacetyl-Ala to Cys 15; C-terminal Gly-KN3-NH2, azide joined to BCN on the oligonucleotide, also called A1/C42) [peptide-HDO conjugate of Example 42 (first nucleic acid strand A1, second nucleic acid strand C42)]	< 100
AVFVWNYYIIRRYYC (MeF at 3, MeY at 14 (N-methyl); thioether ring from N-terminal chloroacetyl-Ala to Cys 15; C-terminal Gly-KN3-NH2, azide joined to BCN on the oligonucleotide, also called A1/C31) [peptide-HDO conjugate of Example 31 (first nucleic acid strand A1, second nucleic acid strand C31)]	< 100
AVFVWNYYIIRRYYC (MeF at 3, MeY at 14 (N-methyl); thioether ring from N-terminal chloroacetyl-Ala to Cys 15; C-terminal Gly-KN3-NH2, azide joined to BCN on the oligonucleotide, also called A1/C28) [peptide-HDO conjugate of Example 28 (first nucleic acid strand A1, second nucleic acid strand C28)]	< 100
AVFVWNYYIIRRYYC (MeF at 3, MeY at 14 (N-methyl); thioether ring from N-terminal chloroacetyl-Ala to Cys 15; C-terminal Gly-PEG12c-KN3-NH2, azide joined to BCN on the oligonucleotide, also called A1/C50) [peptide-HDO conjugate of Example 50 (first nucleic acid strand A1, second nucleic acid strand C50)]	< 100
AVFVWNYYIIRRYYC (MeF at 3, MeY at 14 (N-methyl); thioether ring from N-terminal chloroacetyl-Ala to Cys 15; C-terminal Gly-KN3-NH2, azide joined to BCN on the oligonucleotide, also called A1/C21) [peptide-HDO conjugate of Example 21 (first nucleic acid strand A1, second nucleic acid strand C21)]	< 100
AVFVWNYYIIRRYYC (MeF at 3, MeY at 14 (N-methyl); thioether ring from N-terminal chloroacetyl-Ala to Cys 15; C-terminal Gly-KN3-NH2, azide joined to BCN on the oligonucleotide, also called A1/C2) [peptide-HDO conjugate of Example 2 (first nucleic acid strand A1, second nucleic acid strand C2)]	< 100
AVFVWNYYIIRRYYC (not fully specified; MeF at 3, MeY at 14 (N-methyl); thioether ring from N-terminal chloroacetyl-Ala to Cys 15; C-terminal Gly-KN3-NH2, azide joined to BCN on the oligonucleotide, also called A4/C56) [peptide-HDO conjugate of Example 56 (first nucleic acid strand A4, second nucleic acid strand C56)]	< 100
